Article PMC7380489

Molecular target: human TRIM28 N-terminal RBCC domain (human)
Test: SEC-MALS + other: SEC-SAXS + AUC

With “human TRIM28 N-terminal RBCC domain (domain or fragment)” the stoichiometry N was 3.
